Measurements from PMC6858872 (Nature structural & molecular biology, 2019).
Values joined by “and” are separate entries in the source; they are usually repeats but may differ in a detail not shown here. Equal values may be shown once. Read-outs that look alike come from different tables or passages of the source.

B1: CH1 (immunoglobulin fragment, inherently misfolded without CL) (domain or fragment)
chain: not shown
B2: IRE1 LD (human IRE1 luminal domain, 32-440) (domain or fragment)
chain: LLFVSTLDGSLHAVSKRTGSIKWTLKEDPVLQVPTHVEEPAFLPDPNDGSLYTLGSKNNEGLTKLPFTIPELVQASPCRSSDGILYMGKKQDIWYVIDLLTGEKQQTLSSAFADSLCPSTSLLYLGRTEYTITMYDTKTRELRWNATYFDYAASLPEDDVDYKMSHFVSNGDGLVVTVDSESGDVLWIQNYASPVVAFYVWQREGLRKVMHINVAVETLRYLTFMSGEVGRITKWKYPFPKETEAKSKLTPTLYVGKYSTSLYASPSMVHEGVAVVPRGSTLPLLEGPQTDGVTIGDKGECVITPSTDVKFDPGLKSKNKLNYLRNYWLLIGHHETPLSASTKMLERFPNNLPKHRENVIPADSEKKSFEEVINLVDQTSENAPTTVSRDVEEKPAHAPARPEAPVDSM

Columns and labels:
YFP-BiP [1] = biological target: T1, YFP-BiP (human, UniProt P11021 28-654); experiment: FRET or BRET
YFP-BiP [2] = biological target: T1, YFP-BiP; experiment: FRET or BRET; remark: listed apart in the source
YFP-BiP [3] = biological target: T1, YFP-BiP; experiment: FRET or BRET; remark: listed apart in the source
SEC = biological target: the molecule itself; experiment: SEC

Row | Binder | Ki of the high concentration phase (Ki^High) (YFP-BiP [1]) [µM] | Ki of the high concentration phase (Ki^High) (YFP-BiP [2]) [µM] | Ki of the high concentration phase (Ki^High) (YFP-BiP [3]) [µM] | stoichiometry N (SEC)
1 | B1 | 5.2 ± 0.6 | 0.2 ± 0.01 | 4.3 ± 0.4 | 
2 | B2 |  |  |  | 2 and 4
